{"source": "patent US20160310575A1", "about": "(INDIANA UNIVERSITY RESEARCH AND TECHNOLOGY, published 2016)", "key": {"human GIP-R": {"biological_target": "T1, human GIP-R (human, UniProt P48546 22-466)", "T1 sequence (looked up)": "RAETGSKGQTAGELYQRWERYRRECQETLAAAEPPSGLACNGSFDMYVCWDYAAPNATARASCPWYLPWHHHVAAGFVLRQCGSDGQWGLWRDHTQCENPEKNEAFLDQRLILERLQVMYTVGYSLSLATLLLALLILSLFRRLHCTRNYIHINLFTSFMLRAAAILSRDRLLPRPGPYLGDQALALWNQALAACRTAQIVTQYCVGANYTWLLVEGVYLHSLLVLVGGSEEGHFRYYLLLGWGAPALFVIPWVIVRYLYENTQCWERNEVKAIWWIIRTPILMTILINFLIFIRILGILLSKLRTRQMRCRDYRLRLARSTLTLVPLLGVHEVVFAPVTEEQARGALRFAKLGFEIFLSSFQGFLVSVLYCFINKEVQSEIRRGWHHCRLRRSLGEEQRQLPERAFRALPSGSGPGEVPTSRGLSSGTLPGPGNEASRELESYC", "experiment": "cell-based or functional assay"}, "human GLP-R": {"biological_target": "human GLP-R (human, UniProt P43220 24-463)", "experiment": "cell-based or functional assay"}}, "note": "Non-standard residues stand in square brackets, D forms with d. No end group written: not given here. Aib = CC(C)(N)C(=O)O", "data": [{"binder": "Y[Aib]EGTFTSDYSIYLDKQAA[Aib]EFVAWLLAGGPSSGAPPPSKLPETGGSGS-NH2 (also: PEG (site and size not given here))", "note": "[PEG-peptide-long24A]", "values": [{"measurement": "EC50 [nM], GIP-R (cAMP assay)", "setting": "human GIP-R", "result": 7.51, "unit": "nM"}, {"measurement": "EC50 [nM], GLP1-R (cAMP assay)", "setting": "human GLP-R", "result": 3.89, "unit": "nM"}]}]}
